Assay [1] deals with GAL4 DNA-binding domain fused N terminal 47 amino acids of HBSP (Hepatitis B virus). As to the kind of experiment: two-hybrid; CheckMate mammalian two-hybrid in Huh-7 cells; pACT-EPHX1(353-455) with pBIND constructs and pG5luc reporter; renilla-normalised firefly luciferase at 48 h, relative to pBIND + pACT set to 1.
Assay [2] has as its target GAL4 DNA-binding domain fused full-length HBSP (Hepatitis B virus). The assay is described as above.

B1: VP16-tagged mEH 353-455 (domain or fragment)
chain: DLLTNVMLYWTTGTIISSQRFYKENLGQGWMTQKHERMKVYVPTGFSAFPFELLHTPEKWVRFKYPKLISYSYMVRGGHFAAFEEPELLAQDIRKFLSVLERQ
Take B1: the fold luciferase activity over the negative control in assay [1] was determined as 12 fold; in assay [2], 9 fold.
